Test results: the DeepSol protein solubility set

test: soluble on expression in E. coli; label from the status in PepcDB or PDB records

Row | Sequence | soluble on expression in E. coli
1 | MGHHHHHHSHMTSEQIPNRVLLFDGVCNLCNGAVQFIIKRDPDGLISFTSLQSETGQSLLKKSGLPTDRFDSFVFIEDGQVYTKSTAAIKVFRHLRGPWRLFVLFFAVPKPVRDMVYSFIAKNRYKWFGKKNECMLPSPSIKKRFLP | not soluble
2 | MGHHHHHHSHMVALSNALSRVFGSLAGYKFPSFIQKGINALYVKIFKIDLSEFEPLENYRSLNALFTRSLKKERPFDKSPNICIAPCDALITECAFLDNDSALQIKGMPYKAHELVGEINPLSPSFFYANFYLSPKDYHHYHAPCDLEILEARYFAGKLLPVNKPSLHKNNNLFVGNERVTLVAKDIQGNRLYFVAVGALNVGKMRFNFDKNIQTNAKARFTQTYSYNPPIKVKKGDNLGNFEMGSTIVLFIQNTAFKDLKEKNVKFGESIGEFHAN | not soluble
3 | MGHHHHHHSHMVPSSAETGGTNYLAPGGLSDSQLLLEPGDRSHWCVVAYWEEKTRVGRLYCVQEPSLDIFYDLPQGNGFCLGQLNSDNKSQLVQKVRSKIGCGIQLTREVDGVWVYNRSSYPIFIKSATLDNPDSRTLLVHKVFPGFSIKAFDYEKAYSLQRPNDHEFMQQPWTGFTVQISFVKGWGQCYTRQFISSCPCWLEVIFNSR | not soluble
4 | MGHHHHHHSHMVVLRAGKKTFLPALCRAFACRGCQLAPERGAERRDTAPSGVSRFCPPRKSCHDWIGPPDKYSNLRPVHFYIPENESPLEQKLRKLRQETQEWNQQFWANQNLTFSKEKEEFIHSRLKTKGLGLRTESGQKATLNAEEMADFYKEFLSKNFQKHMYYNRDWYKRNFAITFFMGKVALERIWNKLKQKQKKRSN | not soluble
5 | MGHHHHHHSHMYKFCANALKVILSLRGGVKVYNKENLPADSGFVIACTHSGWVDVITLGVGILPYQIHYMAKKELFQNKWIGSFLKKIHAFPVDRENPGPSSIKTPIKLLKEGEIVGIFPSGTRTSEDVPLKRGAVTIAQMGKAPLVPAAYQGPSSGKELFKKGKMKLIIGEPLHQADFAHLPSKERLAAMTEALNQRIKELENKLDQL | soluble
6 | MGHHHHHHSHNQYPAELMRRFELYFQGPSSNKPRVIREVRADSVGKLVTVRGIVTRVSEVKPKMVVATYTCDQCGAETYQPIQSPTFMPLIMCPSQECQTNRSGGRLYLQTRGSRFIKFQEMKMQEHSDQVPVGNIPRSITVLVEGENTRIAQPGDHVSVTGIFLPILRTGFRQVVQGLLSETYLEAHRIVKMNKSEDDESGAGELTREELRQIAEEDFYEKLAASIAP | not soluble
7 | MGHHHHHHSHPRNSCSLHYIHPYQPNEYLKALVAVGEICQDYDSDKMFPAFGFGARIPPEYTVSHDFAINFNEDNPECAGIQGVVEAYQSCLPKLQLYGPTNIAPIIQKVAKSASEETNTKEASQYFILLILTDGVITDMADTREAIVHASHLPMSVIIVGVGNADFSDMQMLDGDDGILRSPKGEPVLRDIVQFVPFRNFKHASPAALAKSVLAEVPNQVVDYYNGKGIKPKCSSEMYESSRTLAP | not soluble
8 | MGHHHHHHSHQELASKRVDIQNKRFYLDVKQNAKGRFLKIAEVGAGGNKSRLTLSMSVAVEFRDYLGDFIEHYAQLGPSQPPDLAQAQDEPRRALKSEFLVRENRKYYMDLKENQRGRFLRIRQTVNRGPGLGSTQGQTIALPAQGLIEFRDALAKLIDDYGVEEEPAELPEGTSLTVDNKRFFFDVGSNKYGVFMRVSEVKPTYRNSITVPYKVWAKFGHTFCKYSEEMKKIQEK | not soluble
9 | MGHHHHHHSHRLSPRDEYKPLDLSDSTLSYTETEATNSLITAPGEFSDASMSPDATKPSHWCSVAYWEHRTRVGRLYAVYDQAVSIFYDLPQGSGFCLGQLNLEQRSESVRRTRSKIGFGILLSKEPDGVWAYNRGEHPIFVNSPTLDAPGGRALVVRKVPPGYSIKVFDFERSGLQHAPEPDAADGPYDPNSVRISFAKGWGPCYSRQFITSCPCWLEILLNNPR | soluble
10 | MGHHHHHHSHRSIGLKVGLEIHQQLDTREKLFCSCPAELGEEEHDEFVRQLRPTRSELGDVDPAALFEWRKGRLYIYQAPLNHSCLVEADEEPPHPINREAVAVAVAVAKALGSAIVDEVHVMRKTVIDGSNTSGFQRTAIVALGGSIRVGSKEVPIETIVIEEDAARKVGEKGRYVVYRLDRLGIPLIEIATAPVIESPGEAREVALAIGTMLRLTGKVKRGLGTIRQDLNVSIRGGAKTEIKGVQRLELIPRVIEYEVLRQLSLLRIR | not soluble
11 | MGHHHHHHSHSMGVRSMATFVKTADVSILIDPGVSLAPKRYRLPPHRIEIERMNQKWEEIKEMMKKAEVAIITHYHYDHHDPNEVEIFSGKKLLLKHPTEKINRSQKGRAAYFLEQLKSVDVEIDYCDGKSYEFGNTVVELSKPVFHGADSRLGFVVEVYVEDGKSSFLFSSDVEGPNNEEQLAFMLEKSAEVVFIDGPMTYMLGYRFSQKSFESSVENLKRLIAEDVKTLVLDH | soluble
12 | MGHHHRRDTERVCIRTRKIYDWVTRQVDVPLRSFSGEDLEAIFPMDHCRREGTICDFLGAQHTNPQHLTIRCFLTDADGNPIDSVVDQDALICQEITQPNGRQSVNVTLPSGETVTLQKVKALIKGHVVVQIVSPAGTVICQSKPIPFATAQTFILCAPEGTQLNCHISFFECDTSLVCTDNFAQLDVSITLCLEVQVEADVKIEVEARFCQPREELAEAVLCPTTKFPPQCPDVFPAM | not soluble
13 | MGHPRSIRSFVLRQSHMTAAQQRAIDTLWDSFGIDYQATPADLDARFGSSRPKILEIGFGMGTATAEIARRLPETDFLAIDVHGPGVGNLLKLIDENHLENIRVMRHDAVEVVENMLQDGSLDGIHIFFPDPWHKKRHHKRRLIQAPFIAKLLPKLKTGGYIHLATDWEEYAQQMLEVLSSFDSLQNTAADYAPTPDYRPETKFEARGKRLGHGVWDLVFKRIGLEHHHHHH | soluble
14 | MGIFRIQAYFFALIIALFFVACDSGENFKALNSDKTYNFAYNGFEKSLKLNDKAQNFALVFFTKDCGVCKEQIPILQNLAKNYDFNIFVVLGDANDANDAKAWADEKGLSNLAMFYEKRAAKYLSSAIGEIYGVPVLSFFKEGKMDEKFIGLTPYSILEKEIKKVKS | not soluble
15 | MGIFSRFADIVNSNISALLDKAEDPEKMIRLIIQEMEDTLVEVRTNSAKAMADKKELARKVESIEQQLEDWQNKATLALTKQREDLARAALIEKQKLQHVLKGLHTEQMLVEETIEKLTGEIGKLETKITETRAKQQALAIRSQAASHRRDVQRHLHAGRTEEAMAKFEQFSRKVDELEAEADLYAQSGQARSLEQEFAELQAQDEIEKELNKLKAQMKSDQLEHHHHHH | soluble
16 | MGIHLFWDSRVPVGLSRPVSEELSAVLEMPVSRIDDGIFPLEGFDPVRNQYDAVKVLLKLDMFRRRMPQIFKPADMDLEFYNKFNHLHEKILLVTPGDLYEPLADFVFGLAYPKLGVAIVSPHRLQNEFYGKYADDSALIDRIVKEGAHEIGHLFGLGHCDNPGCIMYCPRNLDELDRKRKYFCGKCRVQLNGDTLEDDLFSLEHHHHHH | soluble
17 | MGIIERIKEIEAEMARTQKNKATEYHLGQLKAKIAKLRTQLLEPPKGASGGGEGFEVTKYGHGRVALIGFPSVGKSTLLTMLTGTHSEAASYEFTTLTCIPGVIHYNDTKIQLLDLPGIIEGASEGKGRGRQVIAVAKSSDLVLMVLDASKSEGHRQILTKELEAVGLRLNKTPPQIYFKKKKTGGISFNTTAPLTHIDEKLCYQILHEYKIHNAEVLFRENATVDDFIDVIEGNRKYIKCVYVYNKIDVVGIDDVDRLSRQPNSIVISCNLKLNLDRLLARMWDEMGLVRVYSKPQGQQPDFDEPFVLSSDRGGCTVEDFCNHVHRTLVKDMKYALVWGTSTRHNPQNCGLSQHLEDEDVVQIVKKKERDEGGRGRFKSHSNAPARIADREKKAPLKQ | soluble
18 | MGIKGSKPKLSKEDLEFLKKNTNFTEEQIKEWYKGFVQDCPKGHLTKEQFIKVYKDFFPSGSAEGFCEHVFRTFDTDNSGFIDFKEFLLAINVTSSGTPEQKLEWAFRMYDIDGNGTIDEKEMIKIIEAIYEMLGPEVTKSADDSPRKRAKMIFEKMDVNNDKELTLKEFVDGCLADKELFQILTNEVKK | not soluble
19 | MGILSGNPQNEPLHYGEVFDIWSYLLAAQGAIASHQVFMNHTGDEDLKKFLEGLIENDMNSEIEELKALLKINGVALPPAPPERPVASIEDIPPGARINDVEIAAAVSTGLAAGLVTCSQVMGKCLREDVGMLFGQFHMKKAQAGVTLLRLSKKKGWVVPPPLHVRNSDQA | not soluble
20 | MGINVRAVEIQDARAIHRICIQDNVLPYMVFLPSMRVEAMENRIRNLAPNQFEFVAEYDGEVVGFVGLTQSPGRRSHSGDLFIGVDSEYHNKGIGRALLTKMLDLADNWLMLERVELGVLETNPKAKALYEKFGFVEEGVKIGNLKAHGKFINEIMMSRFRPNGLIVHNE | not soluble
21 | MGITLGKKQLNKGRVSLYLNYSYNGKRRKEYLGIILDAPTSAERRAENRNKVLIARQIKAKKELEFLSVEYHLNDIENTFDDILPTDKSNVPDFYILIGQYLDTYHKKDKKMVRACITHLRLFTRKKSLPITLLTKDFCINFLEYLRDHLRGNTPIGYFKKFKMCINKCIEKKLMTSNPTDGIRLMQFDEVTKAILSLKEIQKLAITPCPNNEVKRAFLFSCYCGLRWCDVHQLQYKDIDFSSNRLTILQQKVQSHSKNAILHLNLNHTAIKLLQRHKGINEELVFGLPSYSYTL | not soluble
22 | MGKDGEGDKKRETMAVMSLMKDQQNPIQQFQVKFKEIETGFKSWLSKQKLPVEAAVVTAMGGVQGAFIGGLMGTLSPEMPQAGIDPQAMASLKQTQALVGGPLVQARNFAAITGVNAGIACVMKRIRGKEDLESAVVAAFGSGVAYSLVSAGLQGQPMNAITTAAGFAVFQGVFFKLGERFSKPSVEDPYYTRGRSMLLKLGLEKYEKNFKKGLLADPTLPLLTDSALRDVSIPPGPRLLILDHIQRDPELKGKRGSRG | not soluble
23 | MGKEALLNLYRIEYRPKDTTFTVFKPTHEIQKEKLNKVRWRVFLQTGLPTFRREDEFWCAGKVEKDTLYLTLSNGEIVELKRVGEEEFRGFQNERECQELFRDFLTKTKVKDKFISDFYKKFRDKITVQGKNRKIALIPEVNEKVLKSEEGYFLLHLDLKFRIQPFETLQTLLERNDFNPKRIRVKPIGIDFVGRVQDVFKAKEKGEEFFRLCMERSTHKSSKKAWEELLKNRELREKAFLVVLEKGYTYPATILKPVLTYENLEDEERNEVADIVRMEPGKRLNLIRYILRRYVKALRDYGWYISPEEERAKGKLNFKDTVLDAKGKNTKVITNLRKFLELCRPFVKKDVLSVEIISVSVYKKLEWRKEEFLKELINFLKNKGIKLKIKGKSLILAQTREEAKEKLIPVINKIKDVDLVIVFLEEYPKVDPYKSFLLYDFVKRELLKKMIPSQVILNRTLKNENLKFVLLNVAEQVLAKTGNIPYKLKEIEGKVDAFVGIDISRITRDGKTVNAVAFTKIFNSKGELVRYYLTSYPAFGEKLTEKAIGDVFSLLEKLGFKKGSKIVVHRDGRLYRDEVAAFKKYGELYGYSLELLEIIKRNNPRFFSNEKFIKGYFYKLSEDSVILATYNQVYEGTHQPIKVRKVYGELPVEVLCSQILSLTLMNYSSFQPIKLPATVHYSDKITKLMLRGIEPIKKEGDIMYWL | soluble
24 | MGKGVAFFSGGKDGLYALYLAEEMGIEVPYLLVLKTSIGLSPHWENLDALKTLAKVMEREILTFDMRRGSKALAEFISSLDVDYLIAGDVYLEDHILWVKSLAEEANVKPLEPLWGRNTRKLAEEMLREGFNWAIIAVDKRKLGKEWLGYTFRSIEDLENFLRANPNVDPLGEVGEFHTVVLNSPLFALNFELKVESIEEDERYWWLRFELREVEKWNLNS | soluble
